From article PMC3237458, “PEGylation Potentiates the Effectiveness of an Antagonistic Peptide That Targets the EphB4 Receptor with Nanomolar Affinity” (PLoS ONE, 2011)

Molecular target: EphB4 Fc (UniProt P54761)
Sequence (P54761 16-539): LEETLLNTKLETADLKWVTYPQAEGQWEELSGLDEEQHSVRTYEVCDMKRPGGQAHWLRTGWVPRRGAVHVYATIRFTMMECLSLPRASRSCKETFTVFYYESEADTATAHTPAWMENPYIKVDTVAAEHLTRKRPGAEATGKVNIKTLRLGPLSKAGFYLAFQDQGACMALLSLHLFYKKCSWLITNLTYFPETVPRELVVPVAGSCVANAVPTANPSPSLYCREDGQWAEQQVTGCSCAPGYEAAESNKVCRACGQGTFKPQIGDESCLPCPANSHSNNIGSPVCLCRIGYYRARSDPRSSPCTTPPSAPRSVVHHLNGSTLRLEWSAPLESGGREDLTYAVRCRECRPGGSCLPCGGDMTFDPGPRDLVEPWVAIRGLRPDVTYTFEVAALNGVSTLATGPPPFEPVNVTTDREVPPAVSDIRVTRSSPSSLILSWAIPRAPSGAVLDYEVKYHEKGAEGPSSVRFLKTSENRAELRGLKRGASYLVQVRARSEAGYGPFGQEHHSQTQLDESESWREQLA

## PEGylated TNYL-RAW (PEG-TNYL-RAW) (peptide)
  inhibition of ephrin-B2 Fc-induced tyrosine phosphorylation of endogenous EphB4 in B16 melanoma cells (blocks EphB4 with ephrin-B2); 2 µM peptide reduce phosphorylation to undetectable levels: 90 nM
